Data taken from article PMC3823011.

How the values were obtained:
[1] = molecular target: CmTic110C (Cyanidioschyzon merolae 10D); experiment: SEC + other: small-angle X-ray scattering
[2] = molecular target: CmTic110B (Cyanidioschyzon merolae 10D); experiment: SEC + other: small-angle X-ray scattering

Substance	stoichiometry N [1]	stoichiometry N [2]
CmTic110C (domain or fragment)	2	
CmTic110B (domain or fragment)		2
